According to patent US20240116985A1 (published 2024):
Starred links: 1 amine or outer side, 2 acyl side, 3 side chain; linkers in the order of their positions; H or OH if unused. Positions of bridges follow the written chain, without caps; N, C: chain ends. Non-standard residues stand in square brackets, D forms with d. Primed or numbered codes have the meaning given here. PyrS2″ = (S)-3-amino-1-((pent-4-en-1-yloxy)carbonyl)pyrrolidine-3-carboxylic acid (stapling residue), C=CCCCOC(=O)N1CC[C@@](N[*:1])(C(=O)[*:2])C1; B5(23) = 2-amino-2-(pent-4-en-1-yl)hept-6-enoic acid (2,2-bis(4-pentenyl)glycine), stitching residue, C=CCCCC(CCCC=C)(N[*:1])C(=O)[*:2]; B5(32) = 2-amino-2-(pent-4-en-1-yl)hept-6-enoic acid (bis-4-pentenylglycine, two alkene side chains), C=CCCCC(CCCC=C)(N[*:1])C(=O)[*:2]; B5(4) = 2,2-bis(4-pentenyl)glycine = 2-amino-2-(pent-4-en-1-yl)hept-6-enoic acid (stitching residue), C=CCCCC(CCCC=C)(N[*:1])C(=O)[*:2]; PyrS2 = (S)-3-amino-1-((pent-4-en-1-yloxy)carbonyl)pyrrolidine-3-carboxylic acid, C=CCCCOC(=O)N1CC[C@@](N[*:1])(C(=O)[*:2])C1; B5(19) = 2-amino-2-(pent-4-en-1-yl)hept-6-enoic acid (bis(4-pentenyl)glycine), C=CCCCC(CCCC=C)(N[*:1])C(=O)[*:2]; 3Br4FF = (S)-2-amino-3-(3-bromo-4-fluorophenyl)propanoic acid, O=C([C@H](Cc1ccc(F)c(Br)c1)N[*:1])[*:2]; 7F1NapA = 3-(7-fluoronaphthalen-1-yl)-L-alanine, O=C([C@H](Cc1cccc2ccc(F)cc12)N[*:1])[*:2]; B5(3) = 2,2-bis(4-pentenyl)glycine (stitching residue), C=CCCCC(CCCC=C)(N[*:1])C(=O)[*:2]; B5(28) = 2,2-bis(4-pentenyl)glycine, C=CCCCC(CCCC=C)(N[*:1])C(=O)[*:2]; Phe(3-CF3) = N[C@@H](Cc1cccc(C(F)(F)F)c1)C(=O)O; Phe(3-COOH) = N[C@@H](Cc1cccc(C(=O)O)c1)C(=O)O; Phe(2-CF3) = N[C@@H](Cc1ccccc1C(F)(F)F)C(=O)O; Phe(3,4-Me2) = Cc1ccc(C[C@H](N)C(=O)O)cc1C; Phe(3-F) = N[C@@H](Cc1cccc(F)c1)C(=O)O; Bta = N[C@@H](Cc1csc2ccccc12)C(=O)O; αAllylPro = C=CC[C@@]1(C(=O)O)CCCN1; tBuAla = CC(C)(C)C[C@H](N)C(=O)O; 3Thi = N[C@@H](Cc1ccsc1)C(=O)O; S8 = C=CCCCCCC[C@](C)(N)C(=O)O; PyrS2(4) = not defined here; Aib = CC(C)(N)C(=O)O

T1: B-cat-Halo (beta-catenin HaloTag NanoBRET construct expressed in HEK293 cells) (UniProt P35222 1-781)
T1 sequence (looked up): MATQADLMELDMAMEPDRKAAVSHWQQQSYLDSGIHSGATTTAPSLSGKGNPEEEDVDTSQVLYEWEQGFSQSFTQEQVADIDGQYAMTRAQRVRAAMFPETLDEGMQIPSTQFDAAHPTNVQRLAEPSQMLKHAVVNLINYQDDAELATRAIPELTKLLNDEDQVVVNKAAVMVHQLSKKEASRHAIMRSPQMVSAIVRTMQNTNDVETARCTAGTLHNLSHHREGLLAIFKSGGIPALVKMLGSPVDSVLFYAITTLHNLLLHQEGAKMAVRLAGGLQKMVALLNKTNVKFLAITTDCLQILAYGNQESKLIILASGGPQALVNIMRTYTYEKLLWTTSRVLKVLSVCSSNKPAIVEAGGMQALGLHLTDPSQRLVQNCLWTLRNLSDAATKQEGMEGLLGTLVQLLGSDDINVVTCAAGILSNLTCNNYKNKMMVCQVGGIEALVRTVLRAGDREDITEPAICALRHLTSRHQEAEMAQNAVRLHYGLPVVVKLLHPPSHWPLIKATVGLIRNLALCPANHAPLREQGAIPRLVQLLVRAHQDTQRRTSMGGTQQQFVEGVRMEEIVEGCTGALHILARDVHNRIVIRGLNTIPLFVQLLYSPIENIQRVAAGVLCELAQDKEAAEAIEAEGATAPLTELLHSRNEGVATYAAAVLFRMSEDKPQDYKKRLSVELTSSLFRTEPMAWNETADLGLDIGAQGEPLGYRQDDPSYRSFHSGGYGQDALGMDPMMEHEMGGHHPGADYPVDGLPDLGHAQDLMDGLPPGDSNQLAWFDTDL

T2: B-cat-Halo (UniProt P35222 1-781)
T2 sequence (looked up): T1 sequence (looked up)

T3: full-length beta-Catenin (Uniprot ID P35222) (Homo sapiens (Human), UniProt P35222 1-781)
T3 construct: also called bCat; B-Catenin
T3 sequence: T1 sequence (looked up)

B1: I-2268 (peptide)
peptide: Ac-[αAllylPro]D[tBuAla][B5(3)]D[Phe(3-COOH)]AAFL[PyrS2(4)][3Thi][Bta]NAAAAA-NH2
modifications: staple 1-4, 4-11; reading uncertain; also: printed as Ac-PL3-Asp-Npg-B5-Asp-3COOHF-Ala-Ala-Phe-Leu-PyrS2-3Thi-BztA-Asn-Ala-Ala-Ala-Ala-Ala-NH2
B2: I-2271 (peptide)
peptide: Ac-[αAllylPro]D[tBuAla][B5(3)]D[Phe(3-COOH)]AAFL[PyrS2(4)][3Thi][Bta]NA[Aib]A-NH2
modifications: staple 1-4, 4-11; reading uncertain; also: printed as Ac-PL3-Asp-Npg-B5-Asp-3COOHF-Ala-Ala-Phe-Leu-PyrS2-3Thi-BztA-Asn-Ala-Aib-Ala-NH2
B3: I-368 (peptide)
peptide: Ac-[αAllylPro]DA[B5(19)]DDAAFV[S8]F[7F1NapA]Q-NH2
modifications: staple 1-4, 4-11
notes: Stapled peptide composition (olefin metathesis)
B4: I-374 (peptide)
peptide: Ac-[αAllylPro]DA[B5(4)]DDAA[Phe(3-CF3)]A[S8]F[Bta]Q-NH2
modifications: staple 1-4, 4-11; not fully specified; printed as Ac-PL3-Asp-Ala-B5-Asp-Asp-Ala-Ala-3F3MeF-Ala-S8-Phe-BztA-Gln-NH2
notes: Stapled peptide
B5: I-372 (peptide)
peptide: Ac-[αAllylPro]DA[B5(4)]DEAAFA[S8][Phe(3-F)][Bta]Q-NH2
modifications: staple 1-4, 4-11
notes: as for B3
B6: I-362 (peptide)
peptide: Ac-[αAllylPro]DA[B5(19)]DDAAFA[S8]H[Bta]Q-NH2
modifications: staple 1-4, 4-11
notes: as for B3
B7: I-371 (peptide)
peptide: Ac-[αAllylPro]DA[B5(19)]DDAAFA[S8][Phe(3-F)][Bta]Q-NH2
modifications: staple 1-4, 4-11
notes: as for B3

What follows are binders tested against T1, B-cat-Halo (beta-catenin HaloTag …) (assay: cell-based or functional assay).
With Ac-[αAllylPro]D[tBuAla][B5(23)]NNAAFN[PyrS2][3Thi][Bta]Q-NH2 (staple 1-4, 4-11) [I-1555] the “NanoBRET Abs IC50” value was 29.3 µM.

These binders were tested against T2, B-cat-Halo (assay: cell-based or functional assay).
B1 was tested, and the “NanoBRET Abs IC50” value was 3.1 µM. In the case of Ac-[αAllylPro]D[tBuAla][B5(4)]D[Phe(3-COOH)]AAFL[PyrS2][3Thi][Bta]NALALA-NH2 (staple 1-4, 4-11; also: earlier eluting staple isomer) [I-2281], the “NanoBRET Abs IC50” value is reported as 4.3 µM. With Ac-[αAllylPro]D[tBuAla][B5(4)]D[Phe(3-COOH)]AAFL[PyrS2][3Thi][Bta]NALALA-NH2 (staple 1-4, 4-11; also: later eluting staple isomer) [I-2282] the “NanoBRET Abs IC50” value was 3.7 µM. With B2 the “NanoBRET Abs IC50” value was 2.3 µM. For Ac-[αAllylPro]D[tBuAla][B5(3)]D[Phe(3-COOH)]AAFL[PyrS2″][3Thi][Bta]NAAAAAAA-NH2 (staple 1-4, 4-11) [I-2269], the “NanoBRET Abs IC50” value was 2.3 µM. For Ac-[αAllylPro]D[tBuAla][B5(4)]D[Phe(3-COOH)]AAFL[PyrS2][3Thi][Bta]NALALALA-NH2 (staple 1-4, 4-11; also: later eluting staple isomer) [I-2284], the “NanoBRET Abs IC50” value was 12.9 µM. Ac-[αAllylPro]D[tBuAla][B5(4)]D[Phe(3-COOH)]AAFL[PyrS2][3Thi][Bta]NALALALA-NH2 (staple 1-4, 4-11; also: earlier eluting staple isomer) [I-2283] was tested, and the “NanoBRET Abs IC50” value was 4.5 µM. For Ac-[αAllylPro]D[tBuAla][B5(4)]D[Phe(3-COOH)]QAFV[PyrS2][3Thi][3Br4FF]A-NH2 (staple 1-4, 4-11) [I-2288], the “NanoBRET Abs IC50” value was 6.7 µM. With Ac-[αAllylPro]D[tBuAla][B5(3)]D[Phe(3-COOH)]AAFL[PyrS2″][3Thi][Bta]NA[Aib]A[Aib]A-NH2 (staple 1-4, 4-11) [I-2272] the “NanoBRET Abs IC50” value was 3 µM. In the case of Ac-[αAllylPro]D[tBuAla][B5(32)]D[Phe(3-COOH)]AAFL[PyrS2][3Thi][Bta]NALL-NH2 (staple 1-4, 4-11; also: later eluting staple isomer) [I-2278], the “NanoBRET Abs IC50” value is reported as 2.8 µM. With Ac-[αAllylPro]D[tBuAla][B5(4)]D[Phe(3-COOH)]AAFL[PyrS2][3Thi][Phe(3,4-Me2)]Q-NH2 (staple 1-4, 4-11) [I-2291] the “NanoBRET Abs IC50” value was 4.9 µM. In the case of Ac-[αAllylPro]D[tBuAla][B5(4)]D[Phe(3-COOH)]AAFL[PyrS2][Phe(2-CF3)][3Br4FF]S-NH2 (staple 1-4, 4-11) [I-2289], the “NanoBRET Abs IC50” value is reported as 9 µM. For Ac-[αAllylPro]D[tBuAla][B5(32)]D[Phe(3-COOH)]AAFL[PyrS2][3Thi][Bta]NLLLLL-NH2 (staple 1-4, 4-11; also: earlier eluting staple isomer) [I-2279], the “NanoBRET Abs IC50” value was over 20 µM. Ac-[αAllylPro]D[tBuAla][B5(32)]D[Phe(3-COOH)]AAFL[PyrS2][3Thi][Bta]NLLL-NH2 (staple 1-4, 4-11; also: earlier eluting staple isomer (HPLC peak)) [I-2275] was tested, and the “NanoBRET Abs IC50” value was 3.5 µM. For Ac-[αAllylPro]D[tBuAla][B5(4)]D[Phe(3-COOH)]AAFL[PyrS2][3Thi][3Br4FF]Q-NH2 (staple 1-4, 4-11) [I-2287], the “NanoBRET Abs IC50” value was 7.1 µM. In the case of Ac-[αAllylPro]D[tBuAla][B5(4)]D[Phe(3-COOH)]AAFL[PyrS2][Phe(2-CF3)][Phe(3,4-Me2)]S-NH2 (staple 1-4, 4-11) [I-2293], the “NanoBRET Abs IC50” value is reported as 5.7 µM. With Ac-[αAllylPro]D[tBuAla][B5(4)]D[Phe(3-COOH)]QAFL[PyrS2][Phe(2-CF3)][3Br4FF]A-NH2 (staple 1-4, 4-11) [I-2290] the “NanoBRET Abs IC50” value was 7.9 µM. For Ac-[αAllylPro]D[tBuAla][B5(3)]D[Phe(3-COOH)]AAFL[PyrS2″][3Thi][Bta]NL-NH2 (staple 1-4, 4-11) [I-2274], the “NanoBRET Abs IC50” value was 2 µM. For Ac-[αAllylPro]D[tBuAla][B5(32)]D[Phe(3-COOH)]AAFL[PyrS2][3Thi][Bta]NALL-NH2 (staple 1-4, 4-11; also: earlier eluting staple isomer) [I-2277], the “NanoBRET Abs IC50” value was 2.3 µM. For Ac-[αAllylPro]D[tBuAla][B5(3)]D[Phe(3-COOH)]AAFL[PyrS2″][3Thi][Bta]NA[Aib]A[Aib]A[Aib]A-NH2 (staple 1-4, 4-11) [I-2273], the “NanoBRET Abs IC50” value was 6.2 µM. In the case of Ac-[αAllylPro]D[tBuAla][B5(28)]D[Phe(3-COOH)]QAFV[PyrS2][3Thi][34MeF]A-NH2 (staple 1-4, 4-11) [I-2292], the “NanoBRET Abs IC50” value is reported as 2.7 µM.

The binders below were run against T3, full-length beta-Catenin (Uniprot ID …) (assay: fluorescence polarization competition; 10 nM full-length beta-catenin, competitor 10 nM 5FAM-TCF4(10-53)).
Procedure: The plate was incubated protected from light for 60 minutes at 20° C. prior to read. Reads were performed on a CLARIOstar plate reader (BMG Labtech) in duplicate, and data were fitted to a 1:1 binding model with hill slope using an in-house script. All provided concentrations are final concentrations.
Binder B3 has an EC50 of 5 µM. Ac-[αAllylPro]DA[B5(19)]DDAAHA[S8]F[Bta]Q-NH2 (staple 1-4, 4-11; also: later eluting HPLC staple isomer, Stapled peptide) [I-364] gave an EC50 of 5 µM. Ac-[αAllylPro]DA[B5(19)]DDAAHA[S8]F[Bta]Q-NH2 (staple 1-4, 4-11; also: earlier eluting HPLC staple isomer, Stapled peptide) [I-363] was tested, and the EC50 was 5 µM. In the case of B4, the EC50 is reported as 3.01 µM. For B5, the EC50 was 2.09 µM. B6 showed an EC50 of 3.66 µM. With B7 the EC50 was 1.39 µM.
